This note sets out measurements from the Immune Epitope Database (IEDB).

One test deals with HLA-A*32:01. Kind of test: IEDB peptide-MHC binding, purified MHC/competitive/radioactivity; filed as Kd, often an IC50 or EC50 that approximates it; ≥ and ≤ were set here for values at or beyond the usual limits of such assays. Particulars: source organism: Vaccinia virus WR.
The target of another test is HLA-B*08:01. The test is described as above.
Another test addresses HLA-A*68:02. The description is as above.
A further test concerns the target HLA-B*07:02. The test is described as above.
A further test has as its target HLA-B*35:01. The description is as above.
The target of a further test is HLA-B*51:01. Described as above.
The target in a further test is HLA-B*53:01. The test is described as above.
The target in another test is HLA-B*54:01. The description is as above.
The target of another test is HLA-A*26:01. Described as above. Particulars: source organism: Dengue virus 1 Brazil/97-11/1997.
The target in a further test is HLA-A*02:06. Described as above.
In a further test the target is HLA-A*01:01. The test is described as above. Particulars: source organism: Dengue virus 3 Martinique/1243/1999.
The target in another test is HLA-A*02:01. The description is as above.
For a further test, the target named is HLA-A*23:01. The description is as above. Conditions: source organism: Dengue virus 3 Martinique/1243/1999.
The target in another test is HLA-B*15:01. Described as above. Particulars: source organism: Dengue virus 3 Martinique/1243/1999.
For a further test, the target named is HLA-B*57:01. Kind of test: IEDB peptide-MHC binding, purified MHC/direct/fluorescence; filed as Kd, often an IC50 or EC50 that approximates it; ≥ and ≤ were set here for values at or beyond the usual limits of such assays.
For a further test, the target named is HLA-B*58:01. The test is described as above.
The target in the next test is HLA-A*02:03. Kind of test: IEDB peptide-MHC binding, purified MHC/competitive/radioactivity; filed as Kd, often an IC50 or EC50 that approximates it; ≥ and ≤ were set here for values at or beyond the usual limits of such assays.
The next test concerns the target HLA-A*02:02. The test is described as above. Particulars: source organism: Vaccinia virus WR.
The mark [1] stands for this setting: source organism: Vaccinia virus WR.
Where [2] appears, read: source organism: Dengue virus 1 Brazil/97-11/1997.
Setting [3] is: source organism: SARS coronavirus Tor2.
Setting [4] is: source organism: Lymphocytic choriomeningitis virus (strain Armstrong).
Where [5] appears, read: source organism: Triticum aestivum.
Where [6] appears, read: source organism: Dengue virus 2 Jamaica/1409/1983.
The mark [7] stands for this setting: source organism: Dengue virus 3 Martinique/1243/1999.
Where [8] appears, read: source organism: Dengue virus 4 Philippines/H241/1956.
[9] abbreviates: source organism: Giardia lamblia ATCC 50803.

For orientation: Kd means the concentration at which binding is half-saturated. For MAMFYAHAL, the Kd with HLA-A*32:01 turned out to be 12500 nM; with HLA-B*08:01 (setting [1]), 1.15 nM.
As to NTTANISLTA, in the test with HLA-A*68:02 (setting [2]), the dissociation constant Kd stood at 44.6 nM.
For TPTIEDDKIV, the Kd with HLA-B*07:02 (setting [1]) is 19700 nM; with HLA-B*35:01 (setting [1]) it was at least 52200 nM; in the test with HLA-B*51:01 (setting [1]), 10100 nM; with HLA-B*53:01 (setting [1]), at least 29000 nM; with HLA-B*54:01 (setting [1]), 3150 nM.
Take KPLLAPHHVV: the dissociation constant (Kd) in the test with HLA-B*07:02 (setting [3]) is 179 nM; with HLA-B*35:01 (setting [3]), at least 69900 nM; with HLA-B*51:01 (setting [3]), at least 69600 nM; with HLA-B*53:01 (setting [3]), at least 69900 nM; with HLA-B*54:01 (setting [3]) it was 7250 nM.
EPVPLTVKM: the Kd with HLA-B*07:02 (setting [4]) is 15000 nM; in the test with HLA-B*35:01 (setting [4]), 63.4 nM; with HLA-B*51:01 (setting [4]), 12700 nM; with HLA-B*53:01 (setting [4]), 327 nM; with HLA-B*54:01 (setting [4]), at least 69500 nM.
LPYPQPQLPY: the Kd came out at 4330 nM in the test with HLA-B*07:02 (setting [5]); 0.487 nM in the test with HLA-B*35:01 (setting [5]); 9.22 nM in the test with HLA-B*51:01 (setting [5]); 4.49 nM with HLA-B*53:01 (setting [5]); 8530 nM in the test with HLA-B*54:01 (setting [5]).
Take DTAWDFGSI: the dissociation constant Kd with HLA-A*26:01 came to 562 nM; in the test with HLA-A*68:02 (setting [2]), 3.09 nM.
With MTDDIGMGV, the equilibrium dissociation constant (Kd) was determined as 7.05 nM with HLA-A*02:06 (setting [6]) and 5.13 nM with HLA-A*68:02 (setting [6]).
IPCRDVVL: the Kd with HLA-B*07:02 (setting [5]) was 3680 nM; with HLA-B*35:01 (setting [5]), 17100 nM; with HLA-B*51:01 (setting [5]) it was 67.7 nM; with HLA-B*53:01 (setting [5]), at least 49100 nM; with HLA-B*54:01 (setting [5]), at least 87700 nM.
MTTEDMLTV: the figures for the Kd with HLA-A*01:01, with HLA-A*02:06 (setting [7]) and in the test with HLA-A*68:02 (setting [7]) were 7380 nM, 2.85 nM and 19.1 nM, respectively.
As for SPYVKFIYF, the Kd in the test with HLA-B*08:01 (setting [1]) is 1780 nM.
NMDPLNDNI: the equilibrium dissociation constant (Kd) was 1930 nM in the test with HLA-A*02:01 (source organism: Homo sapiens) and at least 85700 nM in the test with HLA-A*68:02 (source organism: Homo sapiens).
As to LAKRFSKGLL, the equilibrium dissociation constant (Kd) with HLA-B*08:01 (setting [2]) was 2530 nM.
For the sequence LAGPMVAGGL, in the test with HLA-B*08:01 (setting [8]), the equilibrium dissociation constant (Kd) amounted to 7750 nM.
For the sequence RKSGKKVIQL, the dissociation constant Kd in the test with HLA-B*08:01 (setting [8]) worked out at 301 nM.
MTATPPGTA: the dissociation constant (Kd) in the test with HLA-A*68:02 (setting [7]) is 35.2 nM.
With WLGARYLEF, the Kd with HLA-A*23:01 came out at 82.7 nM; with HLA-B*08:01 (setting [7]), 2.26 nM; in the test with HLA-B*15:01, 158 nM.
Regarding GAITSAHFM, the Kd in the test with HLA-B*57:01 (source organism: Mycobacterium tuberculosis str. Haarlem) is 687 nM; with HLA-B*58:01 (source organism: Mycobacterium tuberculosis), 905 nM.
For the sequence MVSAGSGEV, the Kd in the test with HLA-A*02:03 (setting [2]) is 94.6 nM; with HLA-A*68:02 (setting [2]) it was 29.6 nM.
With FPDIPVNNNI, the Kd with HLA-B*07:02 (setting [1]) stood at 821 nM; with HLA-B*35:01 (setting [1]) it was 442 nM; in the test with HLA-B*51:01 (setting [1]) it was 66.7 nM; with HLA-B*53:01 (setting [1]), 1.22 nM; with HLA-B*54:01 (setting [1]) it was 69.3 nM.
PPYCTIAPVGI: the equilibrium dissociation constant (Kd) with HLA-B*07:02 (setting [5]) was 4470 nM; in the test with HLA-B*35:01 (setting [5]), at least 63700 nM; with HLA-B*51:01 (setting [5]), at least 41300 nM; in the test with HLA-B*53:01 (setting [5]), at least 63700 nM; with HLA-B*54:01 (setting [5]), at least 27700 nM.
With MPSACANGWI, the dissociation constant (Kd) was at least 31400 nM in the test with HLA-B*07:02 (setting [1]); at least 69900 nM with HLA-B*35:01 (setting [1]); at least 43500 nM in the test with HLA-B*51:01 (setting [1]); 5240 nM with HLA-B*53:01 (setting [1]); 5400 nM with HLA-B*54:01 (setting [1]).
RTRPPPCPH: the dissociation constant (Kd) with HLA-B*57:01 (setting [9]) was 935 nM; in the test with HLA-B*58:01 (setting [9]), at least 20000 nM.
In the case of STMTLLCLI, the dissociation constant Kd with HLA-A*68:02 (setting [8]) was 3.75 nM.
ALRFFLQRL: the dissociation constant (Kd) in the test with HLA-B*08:01 (setting [1]) came to 1990 nM.
Take ELVENGKKV: the dissociation constant Kd with HLA-A*02:06 (source organism: Homo sapiens) turned out to be 9570 nM; in the test with HLA-A*68:02 (source organism: Homo sapiens) it was 6350 nM.
For YVNAILYQI, the dissociation constant (Kd) in the test with HLA-A*02:01 (setting [1]) turned out to be 1430 nM; in the test with HLA-A*02:02, 2050 nM; in the test with HLA-A*02:03 (setting [1]), 9940 nM; with HLA-A*02:06 (setting [1]), 1980 nM; in the test with HLA-A*68:02 (setting [1]), 1860 nM.
